Data reported in IntAct's records for PubMed 15990873.

B1: Protein MKS1 (Arabidopsis thaliana (Mouse-ear cress)), Q8LGD5 (parent)
chain: MDPSEYFAGGNPSDQQNQKRQLQICGPRPSPLSVHKDSHKIKKPPKHPAPPPNRDQPPPYIPREPVVIYAVSPKVVHATASEFMNVVQRLTGISSGVFLESGGGGDVSPAARLASTENASPRGGKEPAARDETVEINTAMEEAAEFGGYAPGILSPSPALLPTASTGIFSPMYHQGGMFSPAIPLGLFSPAGFMSPFRSPGFTSLVASPTFADFFSHIWDQD
partner: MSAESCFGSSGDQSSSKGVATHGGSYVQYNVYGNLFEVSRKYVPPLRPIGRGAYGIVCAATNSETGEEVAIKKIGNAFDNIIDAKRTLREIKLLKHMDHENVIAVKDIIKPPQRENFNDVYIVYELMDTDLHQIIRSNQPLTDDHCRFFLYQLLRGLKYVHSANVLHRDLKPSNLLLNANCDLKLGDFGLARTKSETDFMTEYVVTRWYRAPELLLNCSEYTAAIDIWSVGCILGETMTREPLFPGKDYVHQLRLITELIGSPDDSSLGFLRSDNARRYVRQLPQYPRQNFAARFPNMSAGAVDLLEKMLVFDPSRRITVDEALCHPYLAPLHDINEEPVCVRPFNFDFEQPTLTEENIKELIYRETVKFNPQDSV

Variants of: B1
Settings: with mpk4_arath MPK4, Q39024

| effect of a mutation on the interaction | Variant |
| --- | --- |
| decreasing interaction | S30A |
